The values that follow come from patent US20110105412A1.

In this assay the target is gp120 YU2 (HIV, type R5 isolate YU2) (UniProt P35961). Nature of the assay: SPR, indirect; rising concentrations of mCD4 mixed with unlinked HS12Lb, co-incubated with 40 nM gp120 YU2; readout: gp120 bound to the mAb 17b surface [bottom panel]. Background: In SPR one partner is held on a chip, and binding of the other changes the refractive index at the surface.

As usually defined, the EC50 (read off the curve) is the concentration that produces a half-maximal response. As to miniCD4 peptide (mCD4), the concentration giving a half-maximal response (EC50 (read off the curve)) came out at 6 nM.
